PMC4302597

Molecular target: tubulin of PC12 cells (microtubule (MT) fraction, soluble tubulin (ST) fraction or cell lysate) (rat (endogenous in PC12)) (UniProt P68370)
Assay: co-IP; MT fraction of PC12 cells, untreated or treated with 100 ng/mL NGF for three days; 100 μL aliquots (~0.25–1 mg/mL) with anti-α tubulin or anti-Gβ for 1 h at 4°C, then protein A-sepharose overnight at 4°C; immunoblot for Gβ or tubulin

Question: For “βγ subunit of heterotrimeric G proteins (Gβγ), endogenous in PC12 cells (from UniProt P54311 1-340) (complex)”, which fold increase of co-immunoprecipitation in NGF-treated over untreated cells is on record?
Answer: 2 to 3 fold
